Data taken from patent US20180119164A1.

Legend:
Experiment in all cases: cell-based or functional assay
[1] = molecular target: Env of HIV pseudovirus ZM214M (HIV strain ZM214M)
[2] = molecular target: Env of HIV pseudovirus YU2 (HIV strain YU2) (UniProt P35961)
[3] = molecular target: Env of HIV pseudovirus DU422.1 (HIV strain DU422.1)
[4] = molecular target: Env of HIV pseudovirus PVO (HIV strain PVO)
[5] = molecular target: Env of HIV pseudovirus JRCSF (HIV strain JRCSF) (UniProt P20871)
[6] = molecular target: Env of HIV pseudovirus ADA (HIV strain ADA)
[7] = molecular target: Env of HIV pseudovirus MN (HIV strain MN) (UniProt P05877)
Chain of UniProt P05877 (P05877 32-856 limits assumed): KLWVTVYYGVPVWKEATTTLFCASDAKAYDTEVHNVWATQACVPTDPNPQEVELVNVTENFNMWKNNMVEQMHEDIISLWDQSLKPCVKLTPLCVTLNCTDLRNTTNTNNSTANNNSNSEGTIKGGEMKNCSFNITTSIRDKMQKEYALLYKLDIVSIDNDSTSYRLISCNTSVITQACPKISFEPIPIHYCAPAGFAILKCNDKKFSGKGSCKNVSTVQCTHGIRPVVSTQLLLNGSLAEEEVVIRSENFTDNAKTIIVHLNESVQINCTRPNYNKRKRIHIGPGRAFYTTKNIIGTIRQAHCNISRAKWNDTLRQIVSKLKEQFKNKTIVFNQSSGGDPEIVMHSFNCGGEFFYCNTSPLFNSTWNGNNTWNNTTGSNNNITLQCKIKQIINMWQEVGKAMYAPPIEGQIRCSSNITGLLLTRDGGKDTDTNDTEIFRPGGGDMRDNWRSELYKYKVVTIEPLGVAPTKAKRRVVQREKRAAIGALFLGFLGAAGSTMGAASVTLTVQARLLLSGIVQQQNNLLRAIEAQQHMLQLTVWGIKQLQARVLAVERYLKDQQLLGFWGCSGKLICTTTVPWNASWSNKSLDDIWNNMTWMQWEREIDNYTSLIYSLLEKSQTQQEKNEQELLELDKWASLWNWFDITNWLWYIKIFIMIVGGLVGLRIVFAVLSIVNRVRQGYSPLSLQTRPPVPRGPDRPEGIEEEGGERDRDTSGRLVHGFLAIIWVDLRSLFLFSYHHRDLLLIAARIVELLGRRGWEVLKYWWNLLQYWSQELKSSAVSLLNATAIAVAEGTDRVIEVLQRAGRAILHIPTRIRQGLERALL

[8] = molecular target: Env of HIV pseudovirus DU156.12 (HIV strain DU156.12)
[9] = molecular target: Env of HIV pseudovirus TRO.11 (HIV strain TRO.11)
[10] = molecular target: Env of HIV pseudovirus JRFL (HIV strain JRFL)
[11] = molecular target: Env of HIV pseudovirus CAP45 (HIV strain CAP45)

Chain of UniProt P20871 (P20871 32-848 limits assumed): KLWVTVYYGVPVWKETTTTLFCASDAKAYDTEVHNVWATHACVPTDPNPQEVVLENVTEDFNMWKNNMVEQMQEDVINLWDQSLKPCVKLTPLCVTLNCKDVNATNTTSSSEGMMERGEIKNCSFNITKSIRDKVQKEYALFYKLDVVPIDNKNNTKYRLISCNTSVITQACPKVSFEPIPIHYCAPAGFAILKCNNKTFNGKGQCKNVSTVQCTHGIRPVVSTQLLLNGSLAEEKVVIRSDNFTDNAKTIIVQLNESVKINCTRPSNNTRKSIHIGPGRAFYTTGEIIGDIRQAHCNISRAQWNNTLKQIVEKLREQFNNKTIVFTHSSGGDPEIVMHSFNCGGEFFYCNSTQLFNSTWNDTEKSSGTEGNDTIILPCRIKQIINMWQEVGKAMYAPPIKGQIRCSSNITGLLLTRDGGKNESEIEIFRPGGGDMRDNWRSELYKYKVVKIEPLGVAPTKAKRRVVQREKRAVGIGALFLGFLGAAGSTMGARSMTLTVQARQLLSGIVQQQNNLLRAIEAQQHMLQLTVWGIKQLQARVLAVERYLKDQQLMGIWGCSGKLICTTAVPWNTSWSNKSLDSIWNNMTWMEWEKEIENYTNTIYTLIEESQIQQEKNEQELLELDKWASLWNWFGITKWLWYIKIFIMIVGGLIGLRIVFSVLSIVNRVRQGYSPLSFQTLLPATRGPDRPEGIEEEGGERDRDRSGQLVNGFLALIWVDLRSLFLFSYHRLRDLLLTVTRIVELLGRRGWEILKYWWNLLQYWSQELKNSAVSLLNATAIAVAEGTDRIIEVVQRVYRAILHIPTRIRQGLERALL
Chain of UniProt P35961 (P35961 32-843 limits assumed): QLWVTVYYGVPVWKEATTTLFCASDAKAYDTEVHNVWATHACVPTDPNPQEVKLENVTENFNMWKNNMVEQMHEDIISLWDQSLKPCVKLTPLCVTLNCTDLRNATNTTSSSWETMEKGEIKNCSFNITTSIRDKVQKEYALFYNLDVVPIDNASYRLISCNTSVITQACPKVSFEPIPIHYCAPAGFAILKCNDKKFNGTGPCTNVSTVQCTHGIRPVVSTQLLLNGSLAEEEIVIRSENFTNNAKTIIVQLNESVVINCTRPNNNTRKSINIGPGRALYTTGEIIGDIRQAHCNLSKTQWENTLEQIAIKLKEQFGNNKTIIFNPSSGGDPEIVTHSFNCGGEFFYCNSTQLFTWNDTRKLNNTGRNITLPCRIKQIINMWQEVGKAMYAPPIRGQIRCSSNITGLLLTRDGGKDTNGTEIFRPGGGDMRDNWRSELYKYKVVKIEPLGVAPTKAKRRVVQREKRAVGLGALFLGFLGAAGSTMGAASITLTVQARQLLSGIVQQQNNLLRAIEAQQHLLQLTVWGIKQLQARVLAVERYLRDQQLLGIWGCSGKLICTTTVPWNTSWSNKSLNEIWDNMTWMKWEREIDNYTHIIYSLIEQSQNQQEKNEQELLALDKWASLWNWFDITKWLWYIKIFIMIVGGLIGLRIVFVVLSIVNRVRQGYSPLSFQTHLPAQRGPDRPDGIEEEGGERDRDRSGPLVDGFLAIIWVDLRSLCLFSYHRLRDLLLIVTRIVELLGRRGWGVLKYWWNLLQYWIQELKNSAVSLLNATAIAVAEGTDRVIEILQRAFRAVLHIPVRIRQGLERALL

Question: What does the source list for ^CHOPG9 (antibody)?
Answer: IC50, pseudovirus neutralization (TZM-bl luciferase) [1]: > 50 µg/mL; IC50, pseudovirus neutralization (TZM-bl luciferase) [2]: > 50 µg/mL; IC50, pseudovirus neutralization (TZM-bl luciferase) [3]: 10.9 µg/mL; IC50, pseudovirus neutralization (TZM-bl luciferase) [4]: > 50 µg/mL; IC50, pseudovirus neutralization (TZM-bl luciferase) [5]: < 0.02 µg/mL; IC50, pseudovirus neutralization (TZM-bl luciferase) [6]: 42.8 µg/mL; IC50, pseudovirus neutralization (TZM-bl luciferase) [7]: > 50 µg/mL; IC50, pseudovirus neutralization (TZM-bl luciferase) [8]: 0.35 µg/mL; IC50, pseudovirus neutralization (TZM-bl luciferase) [9]: > 50 µg/mL; IC50, pseudovirus neutralization (TZM-bl luciferase) [10]: > 50 µg/mL; IC50, pseudovirus neutralization (TZM-bl luciferase) [11]: < 0.02 µg/mL

Question: Which results are given for ^ΔXFPG9 (antibody)?
Answer: IC50, pseudovirus neutralization (TZM-bl luciferase) [1]: > 50 µg/mL; IC50, pseudovirus neutralization (TZM-bl luciferase) [2]: > 50 µg/mL; IC50, pseudovirus neutralization (TZM-bl luciferase) [3]: > 50 µg/mL; IC50, pseudovirus neutralization (TZM-bl luciferase) [4]: > 50 µg/mL; IC50, pseudovirus neutralization (TZM-bl luciferase) [5]: 0.19 µg/mL; IC50, pseudovirus neutralization (TZM-bl luciferase) [6]: > 50 µg/mL; IC50, pseudovirus neutralization (TZM-bl luciferase) [7]: > 50 µg/mL; IC50, pseudovirus neutralization (TZM-bl luciferase) [8]: > 50 µg/mL; IC50, pseudovirus neutralization (TZM-bl luciferase) [9]: > 50 µg/mL; IC50, pseudovirus neutralization (TZM-bl luciferase) [10]: > 50 µg/mL; IC50, pseudovirus neutralization (TZM-bl luciferase) [11]: 0.65 µg/mL

Question: ^ΔXFPG9Sulf (antibody) was tested. Which IC50, pseudovirus neutralization (TZM-bl luciferase) [1] did it give?
Answer: The IC50, pseudovirus neutralization (TZM-bl luciferase) was > 50 µg/mL.

Question: What about the IC50, pseudovirus neutralization (TZM-bl luciferase) [2] of the same substance?
Answer: Its IC50, pseudovirus neutralization (TZM-bl luciferase) is > 50 µg/mL.

Question: And the IC50, pseudovirus neutralization (TZM-bl luciferase) [3]?
Answer: Its IC50, pseudovirus neutralization (TZM-bl luciferase) is 14.3 µg/mL.

Question: And the IC50, pseudovirus neutralization (TZM-bl luciferase) [4]?
Answer: The IC50, pseudovirus neutralization (TZM-bl luciferase) was > 50 µg/mL.

Question: What about the IC50, pseudovirus neutralization (TZM-bl luciferase) [5] of the same substance?
Answer: The IC50, pseudovirus neutralization (TZM-bl luciferase) was < 0.02 µg/mL.

Question: And the IC50, pseudovirus neutralization (TZM-bl luciferase) [6]?
Answer: The IC50, pseudovirus neutralization (TZM-bl luciferase) was 37.4 µg/mL.

Question: What about the IC50, pseudovirus neutralization (TZM-bl luciferase) [7] of the same substance?
Answer: Its IC50, pseudovirus neutralization (TZM-bl luciferase) is > 50 µg/mL.

Question: What about the IC50, pseudovirus neutralization (TZM-bl luciferase) [8] of the same substance?
Answer: Its IC50, pseudovirus neutralization (TZM-bl luciferase) is 1.2 µg/mL.

Question: What about the IC50, pseudovirus neutralization (TZM-bl luciferase) [9] of the same substance?
Answer: The IC50, pseudovirus neutralization (TZM-bl luciferase) was > 50 µg/mL.

Question: And the IC50, pseudovirus neutralization (TZM-bl luciferase) [10]?
Answer: Its IC50, pseudovirus neutralization (TZM-bl luciferase) is > 50 µg/mL.

Question: What about the IC50, pseudovirus neutralization (TZM-bl luciferase) [11] of the same substance?
Answer: The IC50, pseudovirus neutralization (TZM-bl luciferase) was 0.03 µg/mL.

Question: For ^ΔXFPG9SulfSia (antibody), which IC50, pseudovirus neutralization (TZM-bl luciferase) [1] is on record?
Answer: Its IC50, pseudovirus neutralization (TZM-bl luciferase) is > 50 µg/mL.

Question: What about the IC50, pseudovirus neutralization (TZM-bl luciferase) [2] of the same substance?
Answer: Its IC50, pseudovirus neutralization (TZM-bl luciferase) is > 50 µg/mL.

Question: And the IC50, pseudovirus neutralization (TZM-bl luciferase) [3]?
Answer: Its IC50, pseudovirus neutralization (TZM-bl luciferase) is 6.6 µg/mL.

Question: And the IC50, pseudovirus neutralization (TZM-bl luciferase) [4]?
Answer: Its IC50, pseudovirus neutralization (TZM-bl luciferase) is > 50 µg/mL.

Question: What about the IC50, pseudovirus neutralization (TZM-bl luciferase) [5] of the same substance?
Answer: The IC50, pseudovirus neutralization (TZM-bl luciferase) was 0.03 µg/mL.

Question: And the IC50, pseudovirus neutralization (TZM-bl luciferase) [6]?
Answer: Its IC50, pseudovirus neutralization (TZM-bl luciferase) is 40.2 µg/mL.

Question: And the IC50, pseudovirus neutralization (TZM-bl luciferase) [7]?
Answer: Its IC50, pseudovirus neutralization (TZM-bl luciferase) is > 50 µg/mL.

Question: What about the IC50, pseudovirus neutralization (TZM-bl luciferase) [8] of the same substance?
Answer: Its IC50, pseudovirus neutralization (TZM-bl luciferase) is 0.9 µg/mL.

Question: What about the IC50, pseudovirus neutralization (TZM-bl luciferase) [9] of the same substance?
Answer: The IC50, pseudovirus neutralization (TZM-bl luciferase) was > 50 µg/mL.

Question: And the IC50, pseudovirus neutralization (TZM-bl luciferase) [10]?
Answer: The IC50, pseudovirus neutralization (TZM-bl luciferase) was > 50 µg/mL.

Question: And the IC50, pseudovirus neutralization (TZM-bl luciferase) [11]?
Answer: Its IC50, pseudovirus neutralization (TZM-bl luciferase) is < 0.02 µg/mL.
